# Source: US20230192843A1 (TENEOBIO, published 2023)
# Legend:
# [1] = biological target: T1, human MSLN expressed on CHO cells (human, UniProt Q13421 296-598); assay: flow cytometry, antibody supernatant on CHO cells expressing human MSLN
# T1 construct: whole, on cells; also called CHO-huMSLN
# Method: Pelleted CHO cells were resuspended in flow buffer (1X phosphate buffered saline (PBS), 1% bovine serum albumin (BSA), and 0.1% NaN₃) at 1.25 × 10⁶ cells/mL. Antibody containing supernatants were diluted 1:5 in flow buffer, and 40 µL cells plus 10 µL diluted antibody supernatant were incubated for 30 minutes at 4° C. Cells were washed with flow buffer and resuspended in 50 µL phycoerythrin (PE)-conjugated secondary antibody (Southern Biotech #2042-09) diluted in flow buffer to 1.25 µg/mL and incubated for 20 minutes at 4° C. After two wash steps, cells were resuspended in flow buffer and analyzed using a Guava easyCyte 8HT system. Table E1 summarizes the target binding activity of the anti-MSLN single domain antibodies as fold over background MFI signal.
# [2] = biological target: T1, human MSLN expressed on CHO cells; assay: flow cytometry dose curve on CHO cells expressing human MSLN
# Method: Cell-binding dose curves for example anti-MSLN single domain antibodies described herein were performed using CHO cells expressing human MSLN (FIG. 1A), HeLa cells (FIG. 1B), and CHO-OFFtgt cells (FIG. 1C). The single domain antibodies were tested at a starting concentration of 150 nM, followed by 3-fold serial dilutions for an 8-point dose curve. All washes and dilutions of cells, antibodies, and reagents were performed using flow buffer (1X phosphate buffered saline (PBS), 1% bovine serum albumin (BSA), and 0.1% NaN₃). Cells were pelleted and resuspended at 1 × 10⁶ cells/mL in flow buffer. Then, 50 µL cells were combined with 50 µL of test antibody and incubated 30 minutes at 4° C., followed by two wash steps with flow buffer. Cells were then resuspended in 50 µL PE-conjugated secondary diluted to 1.25 µg/mL (Southern Biotech #2042-09) and incubated for 20 minutes at 4° C. After two wash steps, cells were resuspended in flow buffer and analyzed using a BD Celesta system. PE mean fluorescence intensity was plotted as a fold over background (cells incubated with secondary detection antibody only).
# To determine cell binding EC50 values for example anti-MSLN single domain antibodies of the present disclosure, cell binding dose curves were performed on HeLa cells and CHO cells expressing human MSLN. […]
# [3] = biological target: T2, recombinant human MSLN (R&D Systems, #3265-MS) (human, UniProt Q13421 296-580, limits assumed); assay: BLI (Octet HTX), antibody on AHC sensor, antigen in solution, 1:1 model
# T2 construct: Bought protein; also called antigen
# Method: Table E3 summarizes affinity and epitope bin information for example anti-MSLN single domain antibodies of the present disclosure. The affinity of each single domain antibody to recombinant human MSLN (R&D Systems, #3265-MS) was measured by Bio-layer interferometry (BLI) using an Octet HTX. AHC (Anti-hIgG Fc Capture) sensors were used to immobilize test antibody at 5 µg/mL. After baseline readings, sensors were dipped into antigen solutions (starting at 500 nM followed by a 7-point, 2-fold dilution series). Association and dissociation were measured for 180 and 240 seconds respectively. Data were analyzed with Octet Data Analysis v11.0 HT (ForteBio) using a standard 1:1 binding model. Epitope bins for the single domain antibodies were determined by an in-tandem competition BLI binding experiment using an Octet HTX. The antigen (5 µg/mL) was loaded on the sensor Ni-NTA sensor followed by a baseline in kinetic buffer. The antigen coated sensor was then dipped into a saturating concentration Antibody 1. A second baseline was now set for 300 sec. Then the antigen-antibody 1 complex was dipped into Antibody 2 solution for 180 sec and then allowed to dissociate.
# [4] = biological target: MSLN on HeLa cells (human) (UniProt Q13421); assay: flow cytometry dose curve on HeLa cells
# Chain of MSLN on HeLa cells (human) (Q13421 other isoform, or with tags, fused parts or gaps limits assumed): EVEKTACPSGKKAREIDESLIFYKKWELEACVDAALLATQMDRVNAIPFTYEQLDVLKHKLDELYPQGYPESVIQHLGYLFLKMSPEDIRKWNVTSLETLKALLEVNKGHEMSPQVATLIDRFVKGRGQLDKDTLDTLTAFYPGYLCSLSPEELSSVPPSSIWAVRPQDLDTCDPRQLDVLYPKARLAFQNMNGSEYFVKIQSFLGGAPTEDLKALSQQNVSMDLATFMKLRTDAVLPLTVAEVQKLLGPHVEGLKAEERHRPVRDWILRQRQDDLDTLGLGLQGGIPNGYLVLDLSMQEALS
# T2 sequence (Q13421 other isoform, or with tags, fused parts or gaps limits assumed): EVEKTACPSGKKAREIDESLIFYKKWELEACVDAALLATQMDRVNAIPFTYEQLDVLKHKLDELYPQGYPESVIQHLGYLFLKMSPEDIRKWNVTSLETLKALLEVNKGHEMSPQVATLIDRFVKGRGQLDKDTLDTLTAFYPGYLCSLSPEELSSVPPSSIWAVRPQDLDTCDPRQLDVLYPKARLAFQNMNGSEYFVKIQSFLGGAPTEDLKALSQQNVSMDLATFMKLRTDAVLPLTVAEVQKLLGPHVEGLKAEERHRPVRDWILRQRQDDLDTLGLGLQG
fold over background MFI signal [1] [fold over background],EC50 [2] [nM],Kd [3] [nM],EC50 [4] [nM],Binder
540,2.9,90.4,2.5,"anti-MSLN single domain antibody clone 394556 (VHH, Human VH single domain antibody; It was captured on anti-hIgG Fc (AHC) sensors, so it apparently carried a human Fc) VHH: QLQLQESGPGLVKPSETLSLTCTVSGGSISNSYYWGWIRQPPGKGLEWIGSIYHSGNTYYNPSLKSRVTISVDTSKNQFSLKLSSVTAADTAVYYCVTQDGVGATTTEEYWGQGTLVTVSS"
,,,9.8,anti-MSLN single domain antibody clone 392026 (VHH) VHH: QLQLQESGPGLVKPSETLSLTCTVSGGSISNSYYWGWIRQPPGKGLEWIGSIYHSGNTYYNPSLKSRVTISVDTSKNQFSLKLSSVTAADTAVYYCTSQDGVGATTTEEYWGQGTLVTVSS
16.9,,,,"anti-MSLN single domain antibody clone 394567 (VHH, Human VH single domain antibody; Tested as antibody-containing supernatant) VHH: QLQLQESGPGLVKPSETLSLTCTVSGGSISNSYYWGWIRQPPGKGLEWIGSIYYSGSIHYNPSLKSRVTISVDTSKNQFSLKLSSVTAADTAVYYCTSQDGVGATTTEEYWGQGTLVTVSS"
367,2.2,220,1.3,"anti-MSLN single domain antibody clone 394582 (VHH, Human VH single domain antibody; It was captured on anti-hIgG Fc sensors) VHH: QLQLQESGPGLVKPSETLSLTCTVSGGSISNSYYWGWIRQPPGKGLEWIGSIYHSGNTYYNPSLKSRVTISVDTSKNQFSLKLSSVTAADTAVYYCTTQNGVGATTTEEYWGQGTLVTVSS"
87.3,,,,"anti-MSLN single domain antibody clone 394606 (VHH, Human VH single domain antibody; Tested as antibody-containing supernatant) VHH: QLQLQESGPGLVKPSETLSLTCTVSGGSISSSYYWGWIRQPPGKGLEWIGSIYHSGNTYYNPSLKSRVTISVDTSKNQFSLKLSSVTAADTAVYYCATQNGVGATTTEEYWGQGTLVTVSS"
194,,,,"anti-MSLN single domain antibody clone 394573 (VHH, Human VH single domain antibody; Tested as antibody-containing supernatant) VHH: QLQLQESGPGLVKPSETLSLTCTVSGGSISNSYYWGWIRQPPGKGLEWIGSIYHSGNTYYNPSLKSRVTISVDTSKNQFSLKLSSVTAADTAVYYCATQNGVGATTTEEYWGQGTLVTVSS"
422,,3800,,"anti-MSLN single domain antibody clone 394541 (VHH, Human VH single domain antibody; It was captured on anti-hIgG Fc sensors) VHH: QLQLQESGPGLVKPSETLSLTCTVSGGSISNSYYWGWIRQPPGKGLEWIGSIYHSGNTYYNPSLKSRVTMSVDTSKNQFSLKLSSVTAADTAVYYCTSQDGVGATTTEEYWGQGTLVTVSS"
78,,,,"anti-MSLN single domain antibody clone 394610 (VHH, Human VH single domain antibody; Tested as antibody-containing supernatant) VHH: QLQLQESGPGLVKPSETLSLTCTVSGGSISSSYYWGWIRQPPGKGLEWIGSIYHSGNTYYNPSLKSRVTISVDTSKNQFSLKLSSVTAADTAVYYCTSQDGVGATTTEEYWGQGTLVTVSS"
141,,,,"anti-MSLN single domain antibody clone 394607 (VHH, Human VH single domain antibody; Tested as antibody-containing supernatant) VHH: QLQLQESGPGLVKPSETLSLTCTVSGGSISNSYYWGWIRQPPGKGLEWIGSIYYSGSTYYNPSLKSRVTISVDTSKNQFSLSLNSVTAADTAVYYCATQDGVGATTTEEYWGQGTLVTVSS"
